The text below walks through data of patent publication US20180037645A1.

The target of test [1] is IL-23 E112A (human) (UniProt P29460). Description: cell-based or functional assay.
Test [2] addresses IL-23 D118A (human) (UniProt P29460). Description: cell-based or functional assay.
Test [3] deals with IL-23 M54A (human) (UniProt P29460). As to the kind of experiment: cell-based or functional assay.
In test [4] the target is wild-type IL-23 (His-tagged p19 / non-tagged p40) (human) (UniProt P29460). As to the kind of experiment: cell-based or functional assay.
wild-type IL-23 (His-tagged p19 / non-tagged p40) (human), sequence (chain, as listed by the source limits assumed, chain 1 of 2): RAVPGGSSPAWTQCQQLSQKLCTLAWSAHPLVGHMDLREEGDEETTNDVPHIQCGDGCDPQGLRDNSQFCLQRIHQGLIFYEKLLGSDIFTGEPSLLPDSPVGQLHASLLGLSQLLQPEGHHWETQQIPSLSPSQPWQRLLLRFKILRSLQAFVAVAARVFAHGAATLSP
wild-type IL-23 (His-tagged p19 / non-tagged p40) (human), sequence (P29460 23-328 limits assumed, chain 2 of 2): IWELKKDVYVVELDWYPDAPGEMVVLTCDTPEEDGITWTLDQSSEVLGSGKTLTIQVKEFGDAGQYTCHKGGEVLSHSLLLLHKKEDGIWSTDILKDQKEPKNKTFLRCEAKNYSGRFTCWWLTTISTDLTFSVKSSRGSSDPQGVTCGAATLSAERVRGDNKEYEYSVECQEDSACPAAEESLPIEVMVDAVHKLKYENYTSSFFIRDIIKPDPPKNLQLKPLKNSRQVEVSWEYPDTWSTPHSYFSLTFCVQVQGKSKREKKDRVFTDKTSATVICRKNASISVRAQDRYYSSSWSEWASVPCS
In test [5] the target is IL-23 H53A (human) (UniProt P29460). Description: cell-based or functional assay.
IL-23 H53A (human), sequence (chain, as listed by the source H53A H53A, chain 1 of 2): as the sequence (chain, as listed by the source limits assumed, chain 1 of 2) above, with H34A counted along it
IL-23 H53A (human), sequence (P29460 23-328, chain 2 of 2): as the sequence (P29460 23-328 limits assumed, chain 2 of 2) above
In test [6] the target is IL-23 L116A (human) (UniProt P29460). As to the kind of experiment: cell-based or functional assay.
IL-23 L116A (human), sequence (chain, as listed by the source L116A L116A, chain 1 of 2): as the sequence (chain, as listed by the source limits assumed, chain 1 of 2) above, with L97A counted along it
IL-23 L116A (human), sequence (P29460 23-328, chain 2 of 2): as the sequence (P29460 23-328 limits assumed, chain 2 of 2) above
Test [7] concerns the target IL-23 D55A (human) (UniProt P29460). Description: cell-based or functional assay.
The target of test [8] is IL-23 alanine shave mutant M7 (human) (UniProt P29460). Description: cell-based or functional assay.
IL-23 alanine shave mutant M7 (human), sequence (chain, as listed by the source mutant limits assumed, form in doubt, chain 1 of 2): as the sequence (chain, as listed by the source limits assumed, chain 1 of 2) above, with W123A, E124A, T125A, Q126A, Q127A counted along it
IL-23 alanine shave mutant M7 (human), sequence (P29460 23-328 limits assumed, stated change not applied, form in doubt, chain 2 of 2): as the sequence (P29460 23-328 limits assumed, chain 2 of 2) above
In test [9] the target is wild-type IL-23 (His-tagged p19 / non-tagged p40) (human) (UniProt P29460). As to the kind of experiment: cell-based or functional assay. This is another data set of the same source.
Test [10] deals with IL-23 alanine shave mutant M9 (human) (UniProt P29460). Description: cell-based or functional assay.
IL-23 alanine shave mutant M9 (human), sequence (chain, as listed by the source mutant limits assumed, form in doubt, chain 1 of 2): as the sequence (chain, as listed by the source limits assumed, chain 1 of 2) above, with L97A, D99A, Q104A counted along it
IL-23 alanine shave mutant M9 (human), sequence (P29460 23-328 limits assumed, stated change not applied, form in doubt, chain 2 of 2): as the sequence (P29460 23-328 limits assumed, chain 2 of 2) above
Test [11] deals with IL-23 alanine shave mutant M10 (human) (UniProt P29460). Description: cell-based or functional assay.
IL-23 alanine shave mutant M10 (human), sequence (chain, as listed by the source mutant limits assumed, form in doubt, chain 1 of 2): as the sequence (chain, as listed by the source limits assumed, chain 1 of 2) above, with H34A, M35A, D36A, F144A counted along it
IL-23 alanine shave mutant M10 (human), sequence (P29460 23-328 limits assumed, stated change not applied, form in doubt, chain 2 of 2): as the sequence (P29460 23-328 limits assumed, chain 2 of 2) above
Test [12] has as its target IL-23 alanine shave mutant M5 (human) (UniProt P29460). As to the kind of experiment: cell-based or functional assay.
For test [13], the target named is IL-23 alanine shave mutant M7 (human) (UniProt P29460). As to the kind of experiment: SPR (Biacore T100), antibody captured by protein A. Background: SPR reads the build-up and loss of mass on a sensor chip optically.
The target in test [14] is IL-23 E112A (human) (UniProt P29460). Description: SPR (Biacore T100), antibody captured by protein A.
Test [15] concerns the target IL-23 D118A (human) (UniProt P29460). Description: SPR (Biacore T100), antibody captured by protein A.
Test [16] concerns the target IL-23 M54A (human) (UniProt P29460). As to the kind of experiment: SPR (Biacore T100), antibody captured by protein A.
Test [17] addresses IL-23 alanine shave mutant M9 (human) (UniProt P29460). Description: SPR (Biacore T100), antibody captured by protein A.
Test [18] deals with IL-23 H53A (human) (UniProt P29460). As to the kind of experiment: SPR (Biacore T100), antibody captured by protein A.
The target of test [19] is IL-23 alanine shave mutant M10 (human) (UniProt P29460). As to the kind of experiment: SPR (Biacore T100), antibody captured by protein A.
The target in test [20] is IL-23 L116A (human) (UniProt P29460). As to the kind of experiment: SPR (Biacore T100), antibody captured by protein A.
In test [21] the target is IL-23 alanine shave mutant M5 (human) (UniProt P29460). As to the kind of experiment: SPR (Biacore T100), antibody captured by protein A.
IL-23 alanine shave mutant M5 (human), sequence (chain, as listed by the source mutant limits assumed, form in doubt, chain 1 of 2): as the sequence (chain, as listed by the source limits assumed, chain 1 of 2) above, with H34A, M35A, E93A, L97A, D99A counted along it
IL-23 alanine shave mutant M5 (human), sequence (P29460 23-328 limits assumed, stated change not applied, form in doubt, chain 2 of 2): as the sequence (P29460 23-328 limits assumed, chain 2 of 2) above
Test [22] has as its target IL-23 D55A (human) (UniProt P29460). Description: SPR (Biacore T100), antibody captured by protein A.

Read-outs that look alike come from different tables or passages of the source.

IL-23 D118A (human), sequence (chain, as listed by the source D118A D118A, chain 1 of 2): as the sequence (chain, as listed by the source limits assumed, chain 1 of 2) above, with D99A counted along it
IL-23 D118A (human), sequence (P29460 23-328, chain 2 of 2): as the sequence (P29460 23-328 limits assumed, chain 2 of 2) above
IL-23 E112A (human), sequence (chain, as listed by the source E112A E112A, chain 1 of 2): as the sequence (chain, as listed by the source limits assumed, chain 1 of 2) above, with E93A counted along it
IL-23 E112A (human), sequence (P29460 23-328, chain 2 of 2): as the sequence (P29460 23-328 limits assumed, chain 2 of 2) above
IL-23 D55A (human), sequence (chain, as listed by the source D55A D55A, chain 1 of 2): as the sequence (chain, as listed by the source limits assumed, chain 1 of 2) above, with D36A counted along it
IL-23 D55A (human), sequence (P29460 23-328, chain 2 of 2): as the sequence (P29460 23-328 limits assumed, chain 2 of 2) above
IL-23 M54A (human), sequence (chain, as listed by the source M54A M54A, chain 1 of 2): as the sequence (chain, as listed by the source limits assumed, chain 1 of 2) above, with M35A counted along it
IL-23 M54A (human), sequence (P29460 23-328, chain 2 of 2): as the sequence (P29460 23-328 limits assumed, chain 2 of 2) above

In the case of Merck's IL-23 p19 mAb (7G10) (antibody), the IC50, pSTAT3 in BaF3/huIL-23Rα/huIL-12Rβ1 transfectants with IL-23 E112A (human) [1] was greater than 3 nM; with IL-23 D118A (human) [2], 0.22 nM; in the test with IL-23 M54A (human) [3], 0.27 nM; in [4], 0.18 nM; with IL-23 H53A (human) [5] it was 0.19 nM; in the test with IL-23 L116A (human) [6], 0.24 nM. In addition, the IC50, pSTAT3 in BaF3/huIL-23Rα/huIL-12Rβ1 transfectants amounted to 0.18 nM with IL-23 D55A (human) [7]; 310 pM in test [8]; 380 pM in [9]; 260 pM in test [10]; 350 pM in test [11].

For the substance “STELARA® (ustekinumab, IL-12/IL-23 p40 mAb) (antibody)”, the IC50, pSTAT3 in BaF3/huIL-23Rα/huIL-12Rβ1 transfectants came to 33 pM in the test with IL-23 E112A (human) [1]; 52 pM with IL-23 D118A (human) [2]; 81 pM with IL-23 M54A (human) [3]; 67 pM in test [4]; 78 pM with IL-23 H53A (human) [5]; 54 pM with IL-23 L116A (human) [6]. Moreover, the IC50, pSTAT3 in BaF3/huIL-23Rα/huIL-12Rβ1 transfectants with IL-23 D55A (human) [7] was 77 pM; in test [8], 59 pM; in test [9], 79 pM; in test [10], 67 pM; in [11] it was 71 pM; in test [12] it was 62 pM. The ΔΔG in [13] was 0.418 kJ/mol; in the test with IL-23 E112A (human) [14], 1.26 kJ/mol; in the test with IL-23 D118A (human) [15] it was -1.26 kJ/mol; in the test with IL-23 M54A (human) [16] it was 1.26 kJ/mol; in test [17] it was 0.418 kJ/mol; with IL-23 H53A (human) [18], 1.26 kJ/mol. The ΔΔG amounted to 1.26 kJ/mol in test [19], 2.09 kJ/mol with IL-23 L116A (human) [20], 0.418 kJ/mol in [21] and 2.09 kJ/mol with IL-23 D55A (human) [22].
